Measured values as given in patent US20240325499A1, “FGF21 COMPOUND / GLP-1R AGONIST COMBINATIONS WITH OPTIMIZED ACTIVITY RATIO” (SANOFI, priority 2018, published 2024).

How the values were obtained:
[1] = molecular target: T1, human FGFR1c and KLB (Homo sapiens, UniProt P11362+Q86Z14); assay: In-Cell Western ERK1/2 phosphorylation (pERK ICW) in CHO cells; type: cell-based; conditions: CHO cells overexpressing human FGFR1c and KLB; 5 min stimulus; n = 61
T1 construct: host or cells: CHO Flp-In cells
Method: (§1) The cellular in vitro efficacy of mature human FGF21 (SEQ ID NO: 2) or FGF21 variants was measured using a specific and highly sensitive In-Cell Western (ICW) assay. The ICW assay is an immunocytochemical assay usually performed in microplate format. CHO Flp-In cells (Invitrogen, Darmstadt, Germany) stably expressing the human FGFR1c (=FGF receptor 1c isoform) together with human beta-Klotho (KLB) were used for an FGF21 receptor autophosphorylation assay using In-Cell Western (Aguilar H. N. et al. (2010) PLoS ONE 5(4): e9965). In order to determine the receptor autophosphorylation level or downstream activation of the MAP kinase ERK1/2, 2×10^4 cells/well were seeded into 96-well plates and grown for 48 h. Cells were serum starved with serum-free medium Ham's F-12 Nutrient Mix with GlutaMAX (Gibco, Darmstadt, Germany) for 3-4 h. The cells were subsequently treated with increasing concentrations of either mature human FGF21 (SEQ ID NO: 2) for 5 min at 37° C. After incubation, the medium was discarded, and the cells were fixed in 3.7% freshly prepared para-formaldehyde for 20 min. […] Subsequently, cells were washed again with PBS plus 0.1% Tween20, and infrared dye signals were quantified with an Odyssey imager (LICOR, Bad Homburg, Germany). Results were normalized by quantification of DNA with TO-PRO3 dye (Invitrogen, Karlsruhe, Germany). […]

[2] = molecular target: T1, human FGFR1c and KLB; assay: In-Cell Western FGF21 receptor autophosphorylation (pFGFR ICW) in CHO cells; type: cell-based; conditions: CHO cells overexpressing human FGFR1c and KLB; 5 min stimulus; n = 59
Method: as §1

B1: mature human wild-type FGF21, FGF21(His29-Ser209) (protein, listed as Homo sapiens)
chain: HPIPDSSPLLQFGGQVRQRYLYTDDAQQTEAHLEIREDGTVGGAADQSPESLLQLKALKPGVIQILGVKTSRFLCQRPDGALYGSLHFDPEACSFRELLLEDGYNVYQSEAHGLPLHLPGNKSPHRDPAPRGPARFLPLPGLPPAPPEPPGILAPQPPDVGSSDPLSMVGPSQGRSPSYAS
What does the source list for B1?
EC50 [1]: 0.18 ± 0.02 nM; EC50 [2]: 4.8 ± 0.23 nM
